According to paper PMC7806715, “Discovery of small molecules targeting the tandem tudor domain of the epigenetic factor UHRF1 using fragment-based ligand discovery” (Scientific Reports, 2021):

Molecular target: T1, FLAG-C-UHRF1 (containing SRA, RING E3 domains and PBR, aa 414–793) (UniProt Q96T88 414-793)
T1 construct: UHRF1 C-terminal fragment with the SRA domain, PBR and RING domain, aa 414–793; Cloned into the vector pMCSG7; The methods mix the names His6-C-FLAG-UHRF1, FLAG-C-UHRF1 and C-FLAG-UHRF1; also called FLAG tagged-C-UHRF1; source: Rosetta (DE3) E. coli, purified (Nuvia IMAC, TEV protease digestion to remove the His-tag, second IMAC pass)
T1 sequence (looked up): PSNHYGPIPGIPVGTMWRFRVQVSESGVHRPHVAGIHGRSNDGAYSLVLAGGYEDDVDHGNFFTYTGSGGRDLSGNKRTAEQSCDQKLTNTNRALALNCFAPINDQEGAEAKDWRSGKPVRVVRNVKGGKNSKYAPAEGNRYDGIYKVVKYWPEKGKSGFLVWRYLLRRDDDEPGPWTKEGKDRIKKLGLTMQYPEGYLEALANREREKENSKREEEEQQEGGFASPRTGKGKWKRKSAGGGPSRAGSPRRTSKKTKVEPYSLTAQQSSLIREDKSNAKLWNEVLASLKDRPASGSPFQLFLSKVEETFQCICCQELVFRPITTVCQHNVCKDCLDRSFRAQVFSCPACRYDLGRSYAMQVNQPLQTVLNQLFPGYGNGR
Assay: AlphaScreen or HTRF; AlphaScreen: 300 nM biotinylated-His-Avitag-N-UHRF1 on streptavidin donor beads, 300 nM FLAG-C-UHRF1 on anti-FLAG acceptor beads; 50 mM HEPES pH 6.5 (screen) or 50 mM sodium phosphate pH 7 (dose response), 150 mM NaCl, 0.1% Triton X-100, 1 mM DTT; room temperature; inhibition by fragments or histone peptides
Conditions: both partners purified

B1: biotinylated-His-AviTag-N-UHRF1 (containing UBL and TTD, aa 1–285) (domain or fragment, UniProt Q96T88 1-285, looked up)
chain: MWIQVRTMDGRQTHTVDSLSRLTKVEELRRKIQELFHVEPGLQRLFYRGKQMEDGHTLFDYEVRLNDTIQLLVRQSLVLPHSTKERDSELSDTDSGCCLGQSESDKSSTHGEAAAETDSRPADEDMWDETELGLYKVNEYVDARDTNMGAWFEAQVVRVTRKAPSRDEPCSSTSRPALEEDVIYHVKYDDYPENGVVQMNSRDVRARARTIIKWQDLEVGQVVMLNYNPDNPKERGFWYDAEISRKRETRTARELYANVVLGDDSLNDCRIIFVDEVFKIERPGE
modifications: biotin on the AviTag
notes: Cloned into the vector pMCSG51; also called biotinylated-AviTag-N-UHRF1
  binding result: binds
